From article PMC6241527 come the findings set out here.

The target in assay [1] is H1 hemagglutinin (A/Solomon Islands/3/06) (influenza A virus (A/Solomon Islands/3/06, H1)). The experiment in a line: crystal structure.
In assay [2] the target is H7 hemagglutinin (A/Shanghai/2/13) (influenza A virus (A/Shanghai/2/13, H7)). In words: crystal structure.

What is called stoichiometry N is a count of units in the complex or per binding partner. Take “H1 hemagglutinin (A/Solomon Islands/3/06) (natural protein)”: the stoichiometry N in assay [1] was 3. Consider “H7 hemagglutinin (A/Shanghai/2/13) (natural protein)”, for which, in assay [2], the stoichiometry N was 3.
